Paper PMC4703952, “Probing Intersubunit Interfaces in AMPA-subtype Ionotropic Glutamate Receptors” (Scientific Reports, 2016)

Legend:
Assay in all cases: SEC; FSEC of ~10% of the protein dialysed into non-reducing buffers with the various ligands; 150 mM NaCl, 20 mM Tris-HCl pH 8.0, 1 mM C12M, lipid
[1] = molecular target: GluA2_(C589A-Thr) V215C (rat)
[2] = molecular target: GluA2_(C589A-Thr) I209C (rat)
[3] = molecular target: GluA2_(C589A-Thr) I211C (rat)
[4] = molecular target: GluA2_(C589A-Thr) G212C (rat)
[5] = molecular target: the molecule itself

In the case of GluA2_(C589A-Thr) V215C (receptor), the stoichiometry N [1] is reported as 4.

In the case of GluA2_(C589A-Thr) I209C (receptor), the stoichiometry N [2] is reported as 4.

With GluA2_(C589A-Thr) I211C (receptor) the stoichiometry N [3] was 4.

With GluA2_(C589A-Thr) G212C (receptor) the stoichiometry N [4] was 4.

B1: GluA2_(C589A-Thr) K663C (receptor, rat)
chain: VSSNSIQIGGLFPRGADQEYSAFRVGMVQFSTSEFRLTPHIDNLEVANSFAVTNAFCSQFSRGVYAIFGFYDKKSVNTITSFCGTLHVSFITPSFPTDGTHPFVIQMRPDLKGALLSLIEYYQWDKFAYLYDSDRGLSTLQAVLDSAAEKKWQVTAINVGNINNDKKDETYRSLFQDLELKKERRVILDCERDKVNDIVDQVITIGKHVKGYHYIIANLGFTDGDLLKIQFGGANVSGFQIVDYDDSLVSKFIERWSTLEEKEYPGAHTATIKYTSALTYDAVQVMTEAFRNLRKQRIEISRRGNAGDCLANPAVPWGQGVEIERALKQVQVEGLSGNIKFDQNGKRINYTINIMELKTNGPRKIGYWSEVDKMVVTLTELPSGNDTSGLENKTVVVTTILESPYVMMKKNHEMLEGNERYEGYCVDLAAEIAKHCGFKYKLTIVGDGKYGARDADTKIWNGMVGELVYGKADIAIAPLTITLVREEVIDFSKPFMSLGISIMIKKPQKSKPGVFSFLDPLAYEIWMCIVFAYIGVSVVLFLVSRFSPYEWHTEEFEDGRETQSSESTNEFGIFNSLWFSLGAFMQQGADISPRSLSGRIVGGVWWFFTLIIISSYTANLAAFLTVERMVSPIESAEDLSKQTEIAYGTLDSGSTKEFFRRSCIAVFDKMWTYMRSAEPSVFVRTTAEGVARVRKSKGKYAYLLESTMNEYIEQRKPCDTMKVGGNLDSKGYGIATPKGSSLGTPVNLAVLKLSEQGVLDKLKNKWWYDKGECGAKDSGSKEKTSALSLSNVAGVFYILVGGLGLAMLVALIEFCYKSRAEAKRMKVAKNPQNINPSSSQNSQNFATYKEGYNVYGIESVKIGLVPR
notes: signal peptide in the construct; AMPA receptor subunit GluA2, flip form (GluA2i), rat, NP_058957, full length including the native signal peptide; extra residues left from the thrombin cleavage site at the distal C-terminus after digestion; Single cysteine substitution in m1, LBD dimer-dimer interface; source: HEK293 GnTI- cells, baculovirus-transduced (BacMam), purified (streptactin resin, …)
For B1, the “stoichiometry N” value [5] was 4.

B2: GluA2_(C589A-Thr) I664C (receptor, rat)
chain: VSSNSIQIGGLFPRGADQEYSAFRVGMVQFSTSEFRLTPHIDNLEVANSFAVTNAFCSQFSRGVYAIFGFYDKKSVNTITSFCGTLHVSFITPSFPTDGTHPFVIQMRPDLKGALLSLIEYYQWDKFAYLYDSDRGLSTLQAVLDSAAEKKWQVTAINVGNINNDKKDETYRSLFQDLELKKERRVILDCERDKVNDIVDQVITIGKHVKGYHYIIANLGFTDGDLLKIQFGGANVSGFQIVDYDDSLVSKFIERWSTLEEKEYPGAHTATIKYTSALTYDAVQVMTEAFRNLRKQRIEISRRGNAGDCLANPAVPWGQGVEIERALKQVQVEGLSGNIKFDQNGKRINYTINIMELKTNGPRKIGYWSEVDKMVVTLTELPSGNDTSGLENKTVVVTTILESPYVMMKKNHEMLEGNERYEGYCVDLAAEIAKHCGFKYKLTIVGDGKYGARDADTKIWNGMVGELVYGKADIAIAPLTITLVREEVIDFSKPFMSLGISIMIKKPQKSKPGVFSFLDPLAYEIWMCIVFAYIGVSVVLFLVSRFSPYEWHTEEFEDGRETQSSESTNEFGIFNSLWFSLGAFMQQGADISPRSLSGRIVGGVWWFFTLIIISSYTANLAAFLTVERMVSPIESAEDLSKQTEIAYGTLDSGSTKEFFRRSKCAVFDKMWTYMRSAEPSVFVRTTAEGVARVRKSKGKYAYLLESTMNEYIEQRKPCDTMKVGGNLDSKGYGIATPKGSSLGTPVNLAVLKLSEQGVLDKLKNKWWYDKGECGAKDSGSKEKTSALSLSNVAGVFYILVGGLGLAMLVALIEFCYKSRAEAKRMKVAKNPQNINPSSSQNSQNFATYKEGYNVYGIESVKIGLVPR
notes: as for B1
With B2 the “stoichiometry N” value [5] was 4.

B3: GluA2_(C589A-Thr) A621C (receptor, rat)
chain: VSSNSIQIGGLFPRGADQEYSAFRVGMVQFSTSEFRLTPHIDNLEVANSFAVTNAFCSQFSRGVYAIFGFYDKKSVNTITSFCGTLHVSFITPSFPTDGTHPFVIQMRPDLKGALLSLIEYYQWDKFAYLYDSDRGLSTLQAVLDSAAEKKWQVTAINVGNINNDKKDETYRSLFQDLELKKERRVILDCERDKVNDIVDQVITIGKHVKGYHYIIANLGFTDGDLLKIQFGGANVSGFQIVDYDDSLVSKFIERWSTLEEKEYPGAHTATIKYTSALTYDAVQVMTEAFRNLRKQRIEISRRGNAGDCLANPAVPWGQGVEIERALKQVQVEGLSGNIKFDQNGKRINYTINIMELKTNGPRKIGYWSEVDKMVVTLTELPSGNDTSGLENKTVVVTTILESPYVMMKKNHEMLEGNERYEGYCVDLAAEIAKHCGFKYKLTIVGDGKYGARDADTKIWNGMVGELVYGKADIAIAPLTITLVREEVIDFSKPFMSLGISIMIKKPQKSKPGVFSFLDPLAYEIWMCIVFAYIGVSVVLFLVSRFSPYEWHTEEFEDGRETQSSESTNEFGIFNSLWFSLGAFMQQGADISPRSLSGRIVGGVWWFFTLIIISSYTANLCAFLTVERMVSPIESAEDLSKQTEIAYGTLDSGSTKEFFRRSKIAVFDKMWTYMRSAEPSVFVRTTAEGVARVRKSKGKYAYLLESTMNEYIEQRKPCDTMKVGGNLDSKGYGIATPKGSSLGTPVNLAVLKLSEQGVLDKLKNKWWYDKGECGAKDSGSKEKTSALSLSNVAGVFYILVGGLGLAMLVALIEFCYKSRAEAKRMKVAKNPQNINPSSSQNSQNFATYKEGYNVYGIESVKIGLVPR
notes: signal peptide in the construct; AMPA receptor subunit GluA2, flip form (GluA2i), rat, NP_058957, full length including the native signal peptide; extra residues left from the thrombin cleavage site at the distal C-terminus after digestion; source: HEK293 GnTI- cells, baculovirus-transduced (BacMam), purified (streptactin resin, thrombin digestion, SEC Superose 6); not shown: eGFP, C-terminal, …
In the case of B3, the “stoichiometry N” value [5] is reported as 4.

B4: GluA2_(C589A-Thr) (receptor, rat)
chain: VSSNSIQIGGLFPRGADQEYSAFRVGMVQFSTSEFRLTPHIDNLEVANSFAVTNAFCSQFSRGVYAIFGFYDKKSVNTITSFCGTLHVSFITPSFPTDGTHPFVIQMRPDLKGALLSLIEYYQWDKFAYLYDSDRGLSTLQAVLDSAAEKKWQVTAINVGNINNDKKDETYRSLFQDLELKKERRVILDCERDKVNDIVDQVITIGKHVKGYHYIIANLGFTDGDLLKIQFGGANVSGFQIVDYDDSLVSKFIERWSTLEEKEYPGAHTATIKYTSALTYDAVQVMTEAFRNLRKQRIEISRRGNAGDCLANPAVPWGQGVEIERALKQVQVEGLSGNIKFDQNGKRINYTINIMELKTNGPRKIGYWSEVDKMVVTLTELPSGNDTSGLENKTVVVTTILESPYVMMKKNHEMLEGNERYEGYCVDLAAEIAKHCGFKYKLTIVGDGKYGARDADTKIWNGMVGELVYGKADIAIAPLTITLVREEVIDFSKPFMSLGISIMIKKPQKSKPGVFSFLDPLAYEIWMCIVFAYIGVSVVLFLVSRFSPYEWHTEEFEDGRETQSSESTNEFGIFNSLWFSLGAFMQQGADISPRSLSGRIVGGVWWFFTLIIISSYTANLAAFLTVERMVSPIESAEDLSKQTEIAYGTLDSGSTKEFFRRSKIAVFDKMWTYMRSAEPSVFVRTTAEGVARVRKSKGKYAYLLESTMNEYIEQRKPCDTMKVGGNLDSKGYGIATPKGSSLGTPVNLAVLKLSEQGVLDKLKNKWWYDKGECGAKDSGSKEKTSALSLSNVAGVFYILVGGLGLAMLVALIEFCYKSRAEAKRMKVAKNPQNINPSSSQNSQNFATYKEGYNVYGIESVKIGLVPR
notes: signal peptide in the construct; AMPA receptor subunit GluA2 (GluRB, GluR2), flip form (GluA2i), rat, NP_058957, full length including the native signal peptide; extra residues left from the thrombin cleavage site (GLVPRG) at the distal C-terminus after digestion; Tetrameric membrane protein in C12M detergent with lipid; Purified under reducing conditions; also called WT; parent; source: HEK293 …
For B4, the “stoichiometry N” value [5] was 4.

B5: GluA2_(C589A-Thr) A665C (receptor, rat)
chain: VSSNSIQIGGLFPRGADQEYSAFRVGMVQFSTSEFRLTPHIDNLEVANSFAVTNAFCSQFSRGVYAIFGFYDKKSVNTITSFCGTLHVSFITPSFPTDGTHPFVIQMRPDLKGALLSLIEYYQWDKFAYLYDSDRGLSTLQAVLDSAAEKKWQVTAINVGNINNDKKDETYRSLFQDLELKKERRVILDCERDKVNDIVDQVITIGKHVKGYHYIIANLGFTDGDLLKIQFGGANVSGFQIVDYDDSLVSKFIERWSTLEEKEYPGAHTATIKYTSALTYDAVQVMTEAFRNLRKQRIEISRRGNAGDCLANPAVPWGQGVEIERALKQVQVEGLSGNIKFDQNGKRINYTINIMELKTNGPRKIGYWSEVDKMVVTLTELPSGNDTSGLENKTVVVTTILESPYVMMKKNHEMLEGNERYEGYCVDLAAEIAKHCGFKYKLTIVGDGKYGARDADTKIWNGMVGELVYGKADIAIAPLTITLVREEVIDFSKPFMSLGISIMIKKPQKSKPGVFSFLDPLAYEIWMCIVFAYIGVSVVLFLVSRFSPYEWHTEEFEDGRETQSSESTNEFGIFNSLWFSLGAFMQQGADISPRSLSGRIVGGVWWFFTLIIISSYTANLAAFLTVERMVSPIESAEDLSKQTEIAYGTLDSGSTKEFFRRSKICVFDKMWTYMRSAEPSVFVRTTAEGVARVRKSKGKYAYLLESTMNEYIEQRKPCDTMKVGGNLDSKGYGIATPKGSSLGTPVNLAVLKLSEQGVLDKLKNKWWYDKGECGAKDSGSKEKTSALSLSNVAGVFYILVGGLGLAMLVALIEFCYKSRAEAKRMKVAKNPQNINPSSSQNSQNFATYKEGYNVYGIESVKIGLVPR
notes: as for B1
B5 was tested, and the “stoichiometry N” value [5] was 4.

B6: GluA2_(C589A-Thr) R628C (receptor, rat)
chain: VSSNSIQIGGLFPRGADQEYSAFRVGMVQFSTSEFRLTPHIDNLEVANSFAVTNAFCSQFSRGVYAIFGFYDKKSVNTITSFCGTLHVSFITPSFPTDGTHPFVIQMRPDLKGALLSLIEYYQWDKFAYLYDSDRGLSTLQAVLDSAAEKKWQVTAINVGNINNDKKDETYRSLFQDLELKKERRVILDCERDKVNDIVDQVITIGKHVKGYHYIIANLGFTDGDLLKIQFGGANVSGFQIVDYDDSLVSKFIERWSTLEEKEYPGAHTATIKYTSALTYDAVQVMTEAFRNLRKQRIEISRRGNAGDCLANPAVPWGQGVEIERALKQVQVEGLSGNIKFDQNGKRINYTINIMELKTNGPRKIGYWSEVDKMVVTLTELPSGNDTSGLENKTVVVTTILESPYVMMKKNHEMLEGNERYEGYCVDLAAEIAKHCGFKYKLTIVGDGKYGARDADTKIWNGMVGELVYGKADIAIAPLTITLVREEVIDFSKPFMSLGISIMIKKPQKSKPGVFSFLDPLAYEIWMCIVFAYIGVSVVLFLVSRFSPYEWHTEEFEDGRETQSSESTNEFGIFNSLWFSLGAFMQQGADISPRSLSGRIVGGVWWFFTLIIISSYTANLAAFLTVECMVSPIESAEDLSKQTEIAYGTLDSGSTKEFFRRSKIAVFDKMWTYMRSAEPSVFVRTTAEGVARVRKSKGKYAYLLESTMNEYIEQRKPCDTMKVGGNLDSKGYGIATPKGSSLGTPVNLAVLKLSEQGVLDKLKNKWWYDKGECGAKDSGSKEKTSALSLSNVAGVFYILVGGLGLAMLVALIEFCYKSRAEAKRMKVAKNPQNINPSSSQNSQNFATYKEGYNVYGIESVKIGLVPR
notes: signal peptide in the construct; AMPA receptor subunit GluA2, flip form (GluA2i), rat, NP_058957, full length including the native signal peptide; extra residues left from the thrombin cleavage site at the distal C-terminus after digestion; Single cysteine substitution in m1, LBD-TMD linker region (M3-S2 linker); source: HEK293 GnTI- cells, baculovirus-transduced (BacMam), purified (streptactin …)
In the case of B6, the “stoichiometry N” value [5] is reported as 4.
